Reference: US20240294646A1

Experiments:
[1] = biological target: Soluble FcγRIIb extracellular domain with C-terminal 10xHis tag (UniProt P31994); experiment: SPR (Biacore 4000); variant captured on HER2, receptor in solution
[2] = biological target: Soluble FcγRIIaR extracellular domain with C-terminal 10xHis tag (UniProt P12318); experiment: as above
FcγRIIaR [3] = biological target: FcγRIIaR (UniProt P12318); experiment: SPR imaging (IBIS MX96), antibody spotted on chip, soluble receptor as analyte, kinetic fit, 25 C, pH 7.4
Target sequence in this assay (P12318 34-217 H167R limits assumed): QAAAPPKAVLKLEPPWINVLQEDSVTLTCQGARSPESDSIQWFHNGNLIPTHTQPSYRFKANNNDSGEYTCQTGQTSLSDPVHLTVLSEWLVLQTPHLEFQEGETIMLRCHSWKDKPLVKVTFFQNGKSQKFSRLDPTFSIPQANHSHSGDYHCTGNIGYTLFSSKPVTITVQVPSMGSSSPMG

FcγRIIb [4] = biological target: FcγRIIb (UniProt P31994); experiment: as above
Target sequence in this assay (P31994 43-217): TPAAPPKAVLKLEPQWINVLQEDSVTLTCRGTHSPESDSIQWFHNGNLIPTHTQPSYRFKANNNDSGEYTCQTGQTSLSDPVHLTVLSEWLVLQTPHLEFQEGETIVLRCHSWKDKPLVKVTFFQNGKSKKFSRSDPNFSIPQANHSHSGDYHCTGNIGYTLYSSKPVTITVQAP

FcγRIIb [5] = biological target: FcγRIIb (UniProt P31994); experiment: SPR (Protocol 1); IIb-Fold over IIaR-Fold
Target sequence in this assay (P31994 43-217 limits assumed): as the sequence (P31994 43-217) above

FcγRIIaR [6] = biological target: FcγRIIaR (UniProt P12318); experiment: SPR (Protocol 1), one-armed antibody captured on HER2, receptor as analyte; fold over wild-type
Target sequence in this assay (P12318 34-217): as the sequence (P12318 34-217 H167R limits assumed) above, with R134H counted along it

FcγRIIb [7] = biological target: FcγRIIb (UniProt P31994); experiment: as above
Target sequence in this assay (P31994 43-217 limits assumed): as the sequence (P31994 43-217) above

FcγRIIb [8] = biological target: FcγRIIb (UniProt P31994); experiment: SPR (Protocol 1); FcγRIIb ratio over FcγRIIaR ratio
Target sequence in this assay (P31994 43-217 limits assumed): as the sequence (P31994 43-217) above

FcγRIIaR [9] = biological target: FcγRIIaR (UniProt P12318); experiment: SPR (Protocol 1), one-armed antibody captured on HER2, receptor as analyte; ratio to wild-type
Target sequence in this assay (P12318 34-217): as the sequence (P12318 34-217 H167R limits assumed) above, with R134H counted along it

FcγRIIb [10] = biological target: FcγRIIb (UniProt P31994); experiment: as above
Target sequence in this assay (P31994 43-217 limits assumed): as the sequence (P31994 43-217) above

[11] = biological target: Soluble FcγRIIb extracellular domain with C-terminal 10xHis tag (UniProt P31994); experiment: SPR; fold change in affinity over WT v16463
[12] = biological target: Soluble FcγRIIaR extracellular domain with C-terminal 10xHis tag (UniProt P12318); experiment: SPR; fold change in affinity over WT v16463
[13] = biological target: Soluble FcγRIIb extracellular domain with C-terminal 10xHis tag (UniProt P31994); experiment: SPR; IIb-Fold / IIaR-Fold
[14] = biological target: Soluble FcγRIIb extracellular domain with C-terminal 10xHis tag (UniProt P31994); experiment: SPR, antibody captured on immobilised HER2, soluble receptor as analyte
[15] = biological target: Soluble FcγRIIaR extracellular domain with C-terminal 10xHis tag (UniProt P12318); experiment: as above
FcγRIIb [16] = biological target: FcγRIIb (UniProt P31994); experiment: SPR; ratio of IIb-Fold to IIaR-Fold (FcγRIIb against FcγRIIaR)
Target sequence in this assay (P31994 43-217): as above

FcγRIIaR [17] = biological target: FcγRIIaR (UniProt P12318); experiment: SPR; antibody captured on immobilised HER2, soluble FcγR as analyte; fold over wild-type
Target sequence in this assay (P12318 34-217): as the sequence (P12318 34-217 H167R limits assumed) above, with R134H counted along it

FcγRIIb [18] = biological target: FcγRIIb (UniProt P31994); experiment: as above
Target sequence in this assay (P31994 43-217): as the sequence (P31994 43-217) above

C1q (human) = C1q (human) (UniProt P02745); experiment: ELISA; antibody coated on the plate, human C1q added; signal as % of wild-type
[19] = biological target: FcγRIIb soluble extracellular domain with C-terminal 10xHis tag (UniProt P31994); experiment: SPR; IIb-Fold/IIaR-Fold (FcγRIIb against FcγRIIaR)
[20] = biological target: FcγRIIaR soluble extracellular domain with C-terminal 10xHis tag (UniProt P12318); experiment: SPR, OAA captured on HER2, receptor in solution; KD(WT v16463)/KD(variant)
[21] = biological target: FcγRIIb soluble extracellular domain with C-terminal 10xHis tag (UniProt P31994); experiment: as above
[22] = biological target: FcγRIIb soluble extracellular domain with C-terminal 10xHis tag (UniProt P31994); experiment: SPR, OAA captured on HER2, receptor in solution; KD(control v27294)/KD(variant)
[23] = biological target: FcγRIIb soluble extracellular domain with C-terminal 10xHis tag (UniProt P31994); experiment: SPR; IIb selectivity of variant / that of control v27294
[24] = biological target: Soluble FcγRIIb extracellular domain with C-terminal 10×His tag (UniProt P31994); experiment: SPR, antibody captured on HER2 chip, receptor as analyte
Sequence of Soluble FcγRIIb extracellular domain with C-terminal 10×His tag (P31994 other isoform, or with tags, fused parts or gaps): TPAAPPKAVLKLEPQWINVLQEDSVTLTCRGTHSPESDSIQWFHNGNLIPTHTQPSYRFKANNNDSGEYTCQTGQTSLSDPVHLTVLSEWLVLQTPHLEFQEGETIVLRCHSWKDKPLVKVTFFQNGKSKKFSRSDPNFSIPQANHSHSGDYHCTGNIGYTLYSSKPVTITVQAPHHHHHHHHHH

Sequence of C1q (human) (P02745 23-245 limits assumed, chain 1 of 3): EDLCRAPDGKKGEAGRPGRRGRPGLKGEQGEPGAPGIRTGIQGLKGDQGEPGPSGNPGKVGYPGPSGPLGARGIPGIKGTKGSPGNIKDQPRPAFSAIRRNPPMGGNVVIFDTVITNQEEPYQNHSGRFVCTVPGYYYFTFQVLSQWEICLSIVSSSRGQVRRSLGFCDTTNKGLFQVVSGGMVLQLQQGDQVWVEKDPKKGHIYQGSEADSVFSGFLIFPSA
Sequence of C1q (human) (P02746 28-253 limits assumed, chain 2 of 3, further chain): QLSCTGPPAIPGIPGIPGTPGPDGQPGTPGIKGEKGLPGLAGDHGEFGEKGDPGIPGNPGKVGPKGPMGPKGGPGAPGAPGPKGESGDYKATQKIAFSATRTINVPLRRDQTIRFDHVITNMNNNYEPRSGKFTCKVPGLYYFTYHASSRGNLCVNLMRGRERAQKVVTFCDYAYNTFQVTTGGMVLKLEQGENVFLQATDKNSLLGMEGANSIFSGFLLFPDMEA
Sequence of C1q (human) (P02747 29-245 limits assumed, chain 3 of 3, further chain): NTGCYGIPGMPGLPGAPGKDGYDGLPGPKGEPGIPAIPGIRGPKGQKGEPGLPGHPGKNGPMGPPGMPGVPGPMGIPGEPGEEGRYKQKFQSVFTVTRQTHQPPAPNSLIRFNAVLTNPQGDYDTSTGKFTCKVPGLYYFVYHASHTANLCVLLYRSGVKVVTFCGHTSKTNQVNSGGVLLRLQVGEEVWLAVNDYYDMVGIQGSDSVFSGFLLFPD
Sequence of FcγRIIb soluble extracellular domain with C-terminal 10xHis tag (P31994 other isoform, or with tags, fused parts or gaps limits assumed): as the sequence (P31994 other isoform, or with tags, fused parts or gaps) above
Sequence of Soluble FcγRIIb extracellular domain with C-terminal 10xHis tag (P31994 other isoform, or with tags, fused parts or gaps): as above
Sequence of FcγRIIaR soluble extracellular domain with C-terminal 10xHis tag (P12318 other isoform, or with tags, fused parts or gaps): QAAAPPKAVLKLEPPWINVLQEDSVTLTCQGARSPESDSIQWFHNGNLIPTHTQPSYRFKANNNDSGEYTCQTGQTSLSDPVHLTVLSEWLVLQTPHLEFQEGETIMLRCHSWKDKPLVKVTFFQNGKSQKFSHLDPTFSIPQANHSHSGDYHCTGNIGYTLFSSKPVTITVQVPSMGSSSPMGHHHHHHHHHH
Sequence of Soluble FcγRIIaR extracellular domain with C-terminal 10xHis tag (P12318 other isoform, or with tags, fused parts or gaps): as above

## v26130 (A_N236A_strat1), one-armed trastuzumab antibody
[1]
  Kd: 4 nM
[2]
  Kd: 12 nM

## Variant 21653 (WT), anti-CD19 (4G7) full-size antibody
FcγRIIaR [3]
  Kd: 720 nM
FcγRIIb [4]
  Kd: 2200 nM

## variant 16585, one-armed trastuzumab antibody (Scaffold 2), L234D in both chains
FcγRIIb [5]
  IIb/IIaR Selectivity: 2.7
FcγRIIaR [6]
  IIaR-Fold (fold affinity over wild-type): 0.17 fold
FcγRIIb [7]
  IIb-Fold (fold affinity over wild-type): 0.47 fold
FcγRIIb [8]
  Selectivity IIb/IIaR: 2.7
FcγRIIaR [9]
  Ka,mut/Ka,WT: 0.17
FcγRIIb [10]
  Ka,mut/Ka,WT: 0.47

## Variant 16463, wild-type one-armed trastuzumab antibody (Scaffold 2)
[11]
  IIb-Fold: 1 fold
[12]
  IIaR-fold: 1 fold
[13]
  IIb Selectivity: 1
[14]
  Kd: 1400 nM
[15]
  Kd: 310 nM

## Variant 22127 (trastuzumab FSA; A: L234D_G236N_S267A; B: G236D_S239D_V266L_S267A_H268D) (antibody)
FcγRIIb [16]
  IIb Selectivity (IIb-Fold/IIaR-Fold): 12 fold
FcγRIIaR [17]
  IIaR-fold (fold change in affinity over wild-type): 4 fold
FcγRIIb [18]
  IIb-fold (fold change in affinity over wild-type): 49 fold
C1q (human)
  C1q Binding (% WT): 215 % WT

## variant 16533, one-armed trastuzumab antibody (Scaffold 2), S267I in both chains
FcγRIIb [5]
  IIb/IIaR Selectivity: 2.75
FcγRIIaR [6]
  IIaR-Fold (fold affinity over wild-type): 0.98 fold
FcγRIIb [7]
  IIb-Fold (fold affinity over wild-type): 2.69 fold
FcγRIIb [8]
  Selectivity IIb/IIaR: 2.8
FcγRIIaR [9]
  Ka,mut/Ka,WT: 0.98
FcγRIIb [10]
  Ka,mut/Ka,WT: 2.69

## one-armed trastuzumab antibody (Scaffold 2), chain A L235D, chain B H268Q_K274Q
FcγRIIb [8]
  Selectivity IIb/IIaR: 2.2
FcγRIIaR [9]
  Ka,mut/Ka,WT: 1.03
FcγRIIb [10]
  Ka,mut/Ka,WT: 2.24

## Variant 31256 (trastuzumab FSA; A: L234F_G236N_H268Q_A327G_P329I_A330K_P331S; B: G236D_G237D_S239D_V266L_S267A_H268D) (antibody)
FcγRIIb [16]
  IIb Selectivity (IIb-Fold/IIaR-Fold): 34 fold
FcγRIIaR [17]
  IIaR-fold (fold change in affinity over wild-type): 4 fold
FcγRIIb [18]
  IIb-fold (fold change in affinity over wild-type): 121 fold
C1q (human)
  C1q Binding (% WT): 3 % WT

## v26131 (A_N236V_strat1), one-armed trastuzumab antibody
[1]
  Kd: 3 nM
[2]
  Kd: 8 nM

## Variant 26939 (A_L234F_G236N_H268Q_A327G_A330K_P331S / B_G236D_G237N_S239D_V266L_S267A_H268D) (antibody)
[19]
  IIb Selectivity: 19.7 fold
[20]
  IIaR-fold: 27.5 fold
[21]
  IIb-Fold: 542 fold
[22]
  IIb-Fold wrt Control: 5.8 fold
[23]
  IIb Selectivity Improvement wrt Control: 1.5 fold

## Variant 21653 (WT), anti-CD40 (Chi Lob 7/4) full-size antibody
FcγRIIaR [3]
  Kd: 560 nM
FcγRIIb [4]
  Kd: 2100 nM

## Variant 26931 (A_L234F_G236N_H268Q_A327G_A330K_P331S / B_G236D_G237L_S239D_V266L_S267A_H268D) (antibody)
[19]
  IIb Selectivity: 20.9 fold
[20]
  IIaR-fold: 14.2 fold
[21]
  IIb-Fold: 296 fold
[22]
  IIb-Fold wrt Control: 3.2 fold
[23]
  IIb Selectivity Improvement wrt Control: 1.6 fold

## Variant 26847 (A_L234F_G236N_H268Q_A327G_A330T_P331S / B_G236D_S239D_V266L_S267A_H268D) (antibody)
[19]
  IIb Selectivity: 22.6 fold
[20]
  IIaR-fold: 2.4 fold
[21]
  IIb-Fold: 53.3 fold
[22]
  IIb-Fold wrt Control: 0.6 fold
[23]
  IIb Selectivity Improvement wrt Control: 1.7 fold

## Variant 26940 (A_L234F_G236N_H268Q_A327G_A330K_P331S / B_G236D_G237D_S239D_V266L_S267A_H268D) (antibody)
[19]
  IIb Selectivity: 23.3 fold
[20]
  IIaR-fold: 13.1 fold
[21]
  IIb-Fold: 304 fold
[22]
  IIb-Fold wrt Control: 3.3 fold
[23]
  IIb Selectivity Improvement wrt Control: 1.7 fold

## Variant 22128 (trastuzumab FSA; A: L234F_G236N_H268Q_K274Q_A327G_A330K_P331S; B: L234F_G236D_S239D_V266L_S267A_H268D_K274Q_A327G_A330S_P331S) (antibody)
FcγRIIb [16]
  IIb Selectivity (IIb-Fold/IIaR-Fold): 9 fold
FcγRIIaR [17]
  IIaR-fold (fold change in affinity over wild-type): 4 fold
FcγRIIb [18]
  IIb-fold (fold change in affinity over wild-type): 33 fold
C1q (human)
  C1q Binding (% WT): 3 % WT

## Variant 27362, strat3_control (A_G236N_G237A / B_G236D_G237F_S239D_S267V_H268D), one-armed trastuzumab antibody
[24]
  Kd: 150 nM

## Variant 26593 (A_L234F_L235D_G236N_H268Q_A327G_A330K_P331S / B_G236D_S239D_V266L_S267A_H268D) (antibody)
[19]
  IIb Selectivity: 26.3 fold
[20]
  IIaR-fold: 2.5 fold
[21]
  IIb-Fold: 65.2 fold
[22]
  IIb-Fold wrt Control: 0.7 fold

## v26132 (A_N236L_strat1), one-armed trastuzumab antibody
[1]
  Kd: 2.7 nM
[2]
  Kd: 7.3 nM

## v26128 (A_L235P_strat1), one-armed trastuzumab antibody
[1]
  Kd: 6.5 nM
[2]
  Kd: 18 nM

## Variant 27294, Launching Module 2 (A_L234F_G236N_H268Q_A327G_A330K_P331S / B_G236D_S239D_V266L_S267A_H268D), one-armed trastuzumab antibody
[14]
  Kd: 16 nM
[15]
  Kd: 44 nM

## variant 16578, one-armed trastuzumab antibody (Scaffold 2), A327G_A330S_P331S_L234F_H268Q_K274Q in both chains
FcγRIIb [5]
  IIb/IIaR Selectivity: 4.35
FcγRIIaR [6]
  IIaR-Fold (fold affinity over wild-type): 0.47 fold
FcγRIIb [7]
  IIb-Fold (fold affinity over wild-type): 2.03 fold
FcγRIIb [8]
  Selectivity IIb/IIaR: 4.4
FcγRIIaR [9]
  Ka,mut/Ka,WT: 0.47
FcγRIIb [10]
  Ka,mut/Ka,WT: 2.03

## Variant 31190 (trastuzumab FSA; A: L234F_L235D_G236N_H268Q_A327G_A330K_P331S; B: G236D_G237L_S239D_V266L_S267A_H268D) (antibody)
FcγRIIb [16]
  IIb Selectivity (IIb-Fold/IIaR-Fold): 26 fold
FcγRIIaR [17]
  IIaR-fold (fold change in affinity over wild-type): 7 fold
FcγRIIb [18]
  IIb-fold (fold change in affinity over wild-type): 187 fold
C1q (human)
  C1q Binding (% WT): 2 % WT

## Variant 21653 (WT), anti-HER2 (trastuzumab) full-size antibody
FcγRIIaR [3]
  Kd: 630 nM
FcγRIIb [4]
  Kd: 2000 nM

## v26129 (A_N236G_strat1), one-armed trastuzumab antibody
[1]
  Kd: 4.6 nM
[2]
  Kd: 8.9 nM

## variant 16572, one-armed trastuzumab antibody (Scaffold 2), L234F in both chains
FcγRIIb [5]
  IIb/IIaR Selectivity: 2.48
FcγRIIaR [6]
  IIaR-Fold (fold affinity over wild-type): 0.21 fold
FcγRIIb [7]
  IIb-Fold (fold affinity over wild-type): 0.52 fold
FcγRIIb [8]
  Selectivity IIb/IIaR: 2.5
FcγRIIaR [9]
  Ka,mut/Ka,WT: 0.21
FcγRIIb [10]
  Ka,mut/Ka,WT: 0.52

## Variant 26663 (A_L234F_G236N_S267A_H268Q_A327G_A330K_P331S / B_G236D_S239D_V266L_S267A_H268D) (antibody)
[19]
  IIb Selectivity: 23.6 fold
[20]
  IIaR-fold: 2.6 fold
[21]
  IIb-Fold: 62.1 fold
[22]
  IIb-Fold wrt Control: 0.7 fold
[23]
  IIb Selectivity Improvement wrt Control: 1.8 fold

## variant 16490, one-armed trastuzumab antibody (Scaffold 2), G236D in both chains
FcγRIIb [5]
  IIb/IIaR Selectivity: 2.75
FcγRIIaR [6]
  IIaR-Fold (fold affinity over wild-type): 0.81 fold
FcγRIIb [7]
  IIb-Fold (fold affinity over wild-type): 2.22 fold
FcγRIIb [8]
  Selectivity IIb/IIaR: 2.7
FcγRIIaR [9]
  Ka,mut/Ka,WT: 0.81
FcγRIIb [10]
  Ka,mut/Ka,WT: 2.22

## v12 (IIb-specific comparator, symmetrical E233D_G237D_P238D_H268D_P271G_A330R), anti-CD40 (Chi Lob 7/4) full-size antibody
FcγRIIaR [3]
  Kd: 390 nM
